Laboratory results published in article PMC9745132, “Visualization of real-time receptor endocytosis in dopamine neurons enabled by NTSR1-Venus knock-in mice” (Frontiers in Cellular Neuroscience, 2022).
Where a name gives a salt, the structure may show the parent alone. One block for each compound: values may come before it.

Key:
[1] = test system: hippocampal neurons from Ntsr1^WT/WT mice; assay: Intracellular calcium release (Fluo-4) in hippocampal neurons from Ntsr1^WT/WT mice; assay type: cell-based, mouse; settings: 1 μM, maximal calcium response control
[2] = test system: hippocampal neurons from Ntsr1^Venus/Venus mice; assay: Intracellular calcium release (Fluo-4) in hippocampal neurons from Ntsr1^Venus/Venus mice; assay type: cell-based, mouse; settings: 1 μM, maximal calcium response control
Method: To isolate hippocampal neurons, P0 pups were removed from the cage of NTSR1-Venus homozygous knock-in breeding pairs. Pups were decapitated, brains were removed dorsal side up into fresh ice-cold Hank’s balanced salt solution (HBSS; Gibco, Grand Island, NY, USA), meninges were removed, and hippocampi were dissected into Hibernate A (Gibco, Grand Island, NY, USA) on ice. Tissue dissociation was carried out with the Papain Dissociation System according to the manufacturer’s protocol (Worthington Biochemical Corporation, Lakewood, NJ, USA). Neurons were plated on Poly-D-Lysine (Sigma) coated surfaces at 100,000 cells per 12 mm coverslip (NeuVitro, Camas, WA, USA) in a 24-well plate for immunostaining or 50,000 cells per well of an 8 well chamber slide (Ibidi, Grafelfing, Germany) for calcium measurements. Plating media [Neurobasal A (Gibco, Grand Island, NY, USA), 1% FBS (Fisher Scientific), 2% B-27 (Gibco, Grand Island, NY, USA), 0.5 mM GlutaMAX (Gibco, Grand Island, NY, USA), and 1x Penicillin/Streptomycin (Invitrogen, Waltham, MA, USA)] was exchanged 1 h after plating to maintenance media (Neurobasal A, 2% B-27, 0.5 mM GlutaMAX, and 1x Penicillin/Streptomycin). Half of the volume of media was exchanged for fresh media every 3–4 days. On day in vitro (DIV) 3 Cytosine arabinoside hydrochloride (Sigma) was added to media with a final concentration of 0.1 μM to decrease glial cell proliferation.
Hippocampal neurons were grown until DIV 7. Fluo-4 NW Calcium Assay kit (Thermo Fisher) was used according to the manufacturer’s protocol. Briefly, drugs were prepared at 4 μM stock solutions in the assay buffer provided without probenecid. […] Fluorescence was imaged with a 10x objective on an (Olympus, Shinjuku City, Tokyo, Japan) IX73 microscope (Fluo-4 em. 506 nm).
Live imaging settings of Fluo-4 were as follows, 79 ms exposure, 2 s intervals for 90 cycles (180 s). […] First regions of interest (ROI) were automatically determined using the analyze particles plug in. […] Relative fluorescence is defined as F/F0 where F corresponds to the cell fluorescence and F0 to the basal fluorescence.

NTSR1-RlucII (mouse) [3] = biological target: NTSR1-RlucII (mouse) (UniProt O88319)
Chain of NTSR1-RlucII (mouse) (O88319 whole entry): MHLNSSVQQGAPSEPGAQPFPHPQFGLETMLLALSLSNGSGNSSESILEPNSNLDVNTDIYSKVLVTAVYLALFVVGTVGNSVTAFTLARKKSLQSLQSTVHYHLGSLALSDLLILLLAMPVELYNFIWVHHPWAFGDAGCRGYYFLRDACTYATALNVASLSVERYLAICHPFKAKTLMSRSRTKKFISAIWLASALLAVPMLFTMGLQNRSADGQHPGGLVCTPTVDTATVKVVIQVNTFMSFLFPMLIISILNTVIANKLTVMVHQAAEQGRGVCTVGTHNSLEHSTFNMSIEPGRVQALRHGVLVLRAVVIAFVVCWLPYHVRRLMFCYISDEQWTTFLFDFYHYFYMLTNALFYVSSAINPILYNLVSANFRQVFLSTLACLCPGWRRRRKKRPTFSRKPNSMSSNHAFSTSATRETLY

[4] = biological target: NTSR1-Venus (transfected construct) (mouse) (UniProt O88319)
Chain of NTSR1-Venus (transfected construct) (mouse) (O88319 whole entry): as above

[5] = biological target: mouse NTSR1 (untagged) (mouse) (UniProt O88319)
Chain of mouse NTSR1 (untagged) (mouse) (O88319 whole entry): as above

NTSR1-RlucII (mouse) [6] = biological target: NTSR1-RlucII (mouse) (UniProt O88319); remark: listed apart in the source
[7] = biological target: NTSR1-Venus (knock-in receptor of Ntsr1 Venus/Venus mice) (mouse) (UniProt O88319)
Chain of NTSR1-Venus (knock-in receptor of Ntsr1 Venus/Venus mice) (mouse) (O88319 whole entry): as above

NTSR1-Venus = biological target: T1, NTSR1-Venus (Mus musculus, UniProt O88319); assay: Multiphoton imaging of NTSR1-Venus internalization in acute SN/VTA brain slices; assay type: cell-based; settings: 1 μM during slice recovery and imaging, 60 min
T1 construct: monitoring endogenous NTSR1-Venus receptor endocytosis could differentiate NTSR1 agonists; endogenous in cells; host or cells: primary hippocampal neurons from homozygous NTSR1-Venus knock-in mice (C57BL/6N background)
T1 sequence (O88319 whole entry): as above
Method: Male and female Ntsr1^Venus/Venus mice aged 5 weeks were anesthetized, and 250 μm-thick coronal slices containing substantia nigra pars compacta and ventral tegmental area were prepared. Cutting solution contained (in mM): 87 NaCl, 25 NaHCO3, 25 glucose, 75 sucrose, 2.5 KCl, 1.25 NaH2PO4, 0.5 CaCl2, and 7 MgCl2; bubbled with 5% CO2/95%O2; 4°C. Following cutting, slices were incubated in the same solution for 30 min at 33°C. For control experiments, slices were subsequently incubated in the same solution at room temperature until imaging. For antagonist experiments, slices were subsequently incubated in cutting solution with 1 μM SR48962 until imaging. SR48962 was prepared as a 1 mM stock in water.
Imaging solution referred to as aCSF contained (in mM): 125 NaCl, 2.5 KCl, 2 CaCl2, 1 MgCl2, 25 NaHCO3, 1.25 NaH2PO4, 25 glucose; bubbled with 5% CO2/95% O2; 31–34°C, ∼310 mOsm. For antagonist-only experiments, 1 μM SR48962 was added to the imaging solution. For antagonist plus agonist experiments, a baseline image was taken with no NTSR1 agonist or antagonist in the imaging solution, and subsequently, 10 μM PD149163 [prepared from a stock solution in water] was added to the imaging solution. As a precautionary measure, all components that were exposed to antagonist were rinsed first with 70% ethanol and then water. All components that were exposed to agonist were replaced between experiments.
For two-photon laser scanning microscopy (2PLSM), a 2-photon source (Coherent Ultra II, Santa Clara, CA, USA) was tuned to 920 nm for imaging. […] Both epi and transfluorescence were detected with R9110 photomultiplier tubes (Hamamatsu, Shizuoka, Japan). Laser power measured at the focal plane under the objective was between 8 and 34 mW. […]
To test whether NTSR1 receptors are indeed being bound by endogenous ligand in acute slice, we compared NTSR1 distribution in slices treated with the NTSR1 specific antagonist, SR48692 ([Gully et al., 1993]). […] NTSR1-Venus puncta were then quantified in the acquired image projections by counting vesicle-sized particles (Figure 5E). […]

Compound: C[C@H](CCC(=O)O)C[C@H](C)C[C@H](C)C(=O)/C=C(\O)[C@H](C)C[C@H](C)C/C=C/[C@@H](C)[C@@H](O)[C@@H](C)[C@@H](O)C[C@@H]1CC[C@@](C)([C@H]2CC[C@@](C)([C@@H](C)O)O2)O1 [Ionomycin, Ionomycin calcium salt from Streptomyces conglobatus]
calcium increase [1]: 3 fold
calcium increase [2]: 3 fold

NTSR1-RlucII internalization in HEK293 cells (decrease in ebBRET between NTSR1-RlucII and rGFP-CAAX), concentration-response; potency LogEC50 (NTSR1-RlucII (mouse) [3]): -8.07 LogEC50 (M)
Gq activation in HEK293 cells (ebBRET between p63RhoGEF-RlucII and rGFP-CAAX, EMTA), concentration-response; potency LogEC50 [4]: -8.78 LogEC50 (M)
Gq activation in HEK293 cells (ebBRET between p63RhoGEF-RlucII and rGFP-CAAX, EMTA), concentration-response; potency LogEC50 [5]: -8.97 LogEC50 (M)
NTSR1-RlucII internalization in HEK293 cells (decrease in ebBRET between NTSR1-RlucII and rGFP-CAAX), concentration-response; potency as told in the text (NTSR1-RlucII (mouse) [6]): 5.89 nM
NTSR1-Venus endocytosis in primary hippocampal neurons (ratio of Venus and EEA1 positive to total EEA1 positive endosomes), dose-response after 5 min of agonist; EC50 [7]: 4.03 nM
NTSR1-Venus redistribution to EEA1 endosomes in primary hippocampal neurons, 1 uM neurotensin, time course 0-60 min; % EEA1 vesicles with Venus (value at 5 min) [7]: 98.5%
Compound: Neurotensin (from UniProt P30990 151-163) (peptide)

Compound: COc1cccc(OC)c1-c1cc(C(=O)NC2(C(=O)O)C3CC4CC(C3)CC2C4)nn1-c1ccnc2cc(Cl)ccc12 (stereo not drawn) [SR48692]
NTSR1-Venus puncta across imaging time (NTSR1-Venus): trend of decreasing puncta across imaging time
